{"source": "paper PMC3365582", "biological_target": "PaiB transcriptional regulator from Geobacillus stearothermophilus (Geobacillus stearothermophilus)", "experiment": "crystal structure", "data": [{"substance": "PaiB transcriptional regulator from Geobacillus stearothermophilus (natural protein)", "values": [{"measurement": "stoichiometry N", "result": 2}]}]}
